Results: publication PMC13399505

Key:
[1] = target: BUNV ∆7-Gc-HA (HA-tagged head/stalk-deleted Gc glycoprotein expressed by rBUNV-∆7-Gc-HA) (Bunyamwera orthobunyavirus); assay: affinity purification with mass spectrometry; C6/36 (insect) cells mock-infected or infected at MOI 1, 24 hpi; anti-HA immunoprecipitation of Gc-HA, TMTpro 16plex TMT-MS of the bead fractions, three biological repeats; abundances normalised to common Gc peptides
[2] = target: BUNV ∆7-Gc-HA (HA-tagged head/stalk-deleted Gc glycoprotein expressed by rBUNV-∆7-Gc-HA) (Bunyamwera orthobunyavirus); assay: affinity purification with mass spectrometry; A549 (mammalian) cells mock-infected or infected at MOI 1, 24 hpi; anti-HA immunoprecipitation of Gc-HA, TMTpro 16plex TMT-MS of the bead fractions, three biological repeats; abundances normalised to common Gc peptides

Substance: BUNV nucleocapsid protein (NP) (from UniProt P16495 1-233) (natural protein)
- log2 fold change of NP precipitated, WT-Gc-HA over ∆7-Gc-HA (log2 fold change) [1]: 2.76
- log2 fold change of NP precipitated, WT-Gc-HA over ∆7-Gc-HA (log2 fold change) [2]: 0.24
